Data from PMC3130014, “The Cryo-EM Structure of a Complete 30S Translation Initiation Complex from Escherichia coli” (PLoS Biology, 2011).

Molecular target: T1, initiation factor 2 (IF2α) from E. coli (E. coli, UniProt P0A705 1-890)
T1 construct: Translation initiation factor IF2, alpha form (IF2α), E. coli; CTD: G2 391-559, G3 560-672, C1 673-779, C2 780-890); source: prepared as described [14]
Experiment: cryo-EM structure; 30S IC reconstituted from 30S subunits (0.1 µM), IF1 (0.3 µM), IF2α (0.2 µM), IF3 (0.3 µM), 002 mRNA (0.6 µM), fMet-tRNA^fMet (0.6 µM), GDPNP (0.5 mM); 37°C 15 min, buffer A (50 mM Tris-HCl pH 7.5, 70 mM NH4Cl, 30 mM KCl, 7 mM MgCl2); class 2 map at 18.3/15 Å; rigid-body and flexible fitting of a homology model of IF2
Conditions: both partners purified

T1 sequence (P0A705 whole entry): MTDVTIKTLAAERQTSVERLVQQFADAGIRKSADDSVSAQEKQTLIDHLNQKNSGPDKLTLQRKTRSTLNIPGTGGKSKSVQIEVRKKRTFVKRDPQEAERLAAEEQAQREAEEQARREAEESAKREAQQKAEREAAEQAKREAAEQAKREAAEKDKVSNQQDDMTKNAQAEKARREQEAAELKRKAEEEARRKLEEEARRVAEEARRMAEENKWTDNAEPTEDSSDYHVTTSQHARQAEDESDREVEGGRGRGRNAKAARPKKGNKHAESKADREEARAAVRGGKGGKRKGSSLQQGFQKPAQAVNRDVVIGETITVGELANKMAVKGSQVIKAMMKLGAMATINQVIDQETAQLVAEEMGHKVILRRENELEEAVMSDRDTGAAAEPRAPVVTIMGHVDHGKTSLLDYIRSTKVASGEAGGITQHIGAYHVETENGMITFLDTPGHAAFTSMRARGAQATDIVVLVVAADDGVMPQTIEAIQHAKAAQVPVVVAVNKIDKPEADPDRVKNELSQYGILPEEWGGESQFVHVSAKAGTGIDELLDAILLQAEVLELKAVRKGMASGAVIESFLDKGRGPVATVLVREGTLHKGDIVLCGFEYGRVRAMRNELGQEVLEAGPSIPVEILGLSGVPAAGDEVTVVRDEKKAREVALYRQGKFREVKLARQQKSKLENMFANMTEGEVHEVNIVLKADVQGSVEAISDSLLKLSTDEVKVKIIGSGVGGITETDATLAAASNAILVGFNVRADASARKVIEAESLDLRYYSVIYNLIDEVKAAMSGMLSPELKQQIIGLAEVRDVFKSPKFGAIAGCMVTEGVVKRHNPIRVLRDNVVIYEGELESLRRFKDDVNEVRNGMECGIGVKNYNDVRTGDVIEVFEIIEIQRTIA

- binding result: binds
B1: initiation factor 1 (IF1) from E. coli (natural protein, UniProt P69222 1-72, looked up)
chain: MAKEDNIEMQGTVLETLPNTMFRVELENGHVVTAHISGKMRKNYIRILTGDKVTVELTPYDLSKGRIVFRSR
notes: Translation initiation factor IF1, E. coli; source: prepared as described [14]
